Laboratory results as given in patent US20200024330A1.

Tests used:
Experiment in all cases: cell-based or functional assay
[1] = target: HIV-1 92BR020 envelope glycoprotein (Env) on pseudovirus (HIV-1)
[2] = target: HIV-1 92RW020 envelope glycoprotein (Env) on pseudovirus (HIV-1)
[3] = target: HIV-1 92TH021 envelope glycoprotein (Env) on pseudovirus (HIV-1)
[4] = target: HIV-1 92UG024 envelope glycoprotein (Env) on pseudovirus (HIV-1)
[5] = target: HIV-1 Env of isolate JRFL (HIV-1)
[6] = target: HIV-1 Env of isolate MGRM-AE-006 (CRF01_AE), on pseudovirus (HIV-1)
[7] = target: HIV-1 Env of isolate MGRM-Chronic-B-010 (HIV-1)
[8] = target: HIV-1 Env of isolate MGRM-Chronic-B-011 (HIV-1)
[9] = target: HIV-1 Env of isolate MGRM-Chronic-B-012 (HIV-1)
[10] = target: HIV-1 Env of isolate MGRM-Chronic-B-017 (HIV-1)
[11] = target: HIV-1 Env of isolate MGRM-Chronic-B-018 (HIV-1)
[12] = target: HIV-1 Env of isolate MGRM-Chronic-B-020 (HIV-1)
[13] = target: HIV-1 Env of isolate MGRM-Chronic-B-023 (HIV-1)
[14] = target: HIV-1 Env of isolate MGRM-Chronic-B-024 (HIV-1)
[15] = target: HIV-1 Env of isolate MGRM-G-001 (HIV-1)
[16] = target: HIV-1 Env of isolate MGRM-G-004 (HIV-1)
[17] = target: HIV-1 Env of isolate MGRM-G-006 (HIV-1)
[18] = target: HIV-1 Env of isolate MGRM-G-009 (HIV-1)
[19] = target: HIV-1 Env of isolate MGRM-G-011 (HIV-1)
[20] = target: HIV-1 Env of isolate MGRM-G-013 (HIV-1)
[21] = target: HIV-1 Env of isolate MGRM-G-014 (HIV-1)
[22] = target: HIV-1 Env of isolate MGRM-G-015 (HIV-1)
[23] = target: HIV-1 Env of isolate MGRM-G-016 (HIV-1)
[24] = target: HIV-1 Env of isolate MGRM-G-017 (HIV-1)
[25] = target: HIV-1 Env of isolate MGRM-G-019 (HIV-1)
[26] = target: HIV-1 Env of isolate MGRM-G-027 (HIV-1)
[27] = target: HIV-1 NL43 envelope glycoprotein (Env) on pseudovirus (HIV-1)
[28] = target: aMLV envelope (negative control pseudovirus)

Chain of 5329_C19 (PGT-136) (antibody) (VH): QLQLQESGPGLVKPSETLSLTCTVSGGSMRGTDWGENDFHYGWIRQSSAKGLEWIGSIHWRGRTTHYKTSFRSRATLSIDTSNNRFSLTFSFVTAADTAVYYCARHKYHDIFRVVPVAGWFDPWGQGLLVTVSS
Chain of 5329_C19 (PGT-136) (antibody) (VL): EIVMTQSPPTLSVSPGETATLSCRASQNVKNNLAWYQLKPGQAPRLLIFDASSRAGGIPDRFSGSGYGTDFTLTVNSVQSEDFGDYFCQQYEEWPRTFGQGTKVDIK
Chain of 5345_I01 (PGT-137) (antibody) (VH): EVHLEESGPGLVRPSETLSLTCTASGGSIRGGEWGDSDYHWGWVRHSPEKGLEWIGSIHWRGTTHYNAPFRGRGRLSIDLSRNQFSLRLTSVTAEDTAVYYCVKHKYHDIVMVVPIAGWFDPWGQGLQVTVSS
Chain of 5345_I01 (PGT-137) (antibody) (VL): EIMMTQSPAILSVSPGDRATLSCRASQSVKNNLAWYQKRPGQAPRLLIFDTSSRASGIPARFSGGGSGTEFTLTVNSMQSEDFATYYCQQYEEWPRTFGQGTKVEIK

Row | Substance | IC50 [5] [µg/mL] | IC50, single-round pseudovirus neutralization [6] [µg/mL] | IC50 [7] [µg/mL] | IC50 [8] [µg/mL] | IC50 [9] [µg/mL] | IC50 [10] [µg/mL] | IC50 [11] [µg/mL] | IC50 [12] [µg/mL] | IC50 [13] [µg/mL] | IC50 [14] [µg/mL] | IC50, pseudovirus neutralization [15] [µg/mL] | IC50, pseudovirus neutralization [16] [µg/mL] | IC50, pseudovirus neutralization [17] [µg/mL] | IC50, pseudovirus neutralization [18] [µg/mL] | IC50, pseudovirus neutralization [19] [µg/mL] | IC50, pseudovirus neutralization [20] [µg/mL] | IC50, pseudovirus neutralization [21] [µg/mL] | IC50, pseudovirus neutralization [22] [µg/mL] | IC50, pseudovirus neutralization [23] [µg/mL] | IC50, pseudovirus neutralization [24] [µg/mL] | also measured
1 | 5147_N06 (PGT-130) (antibody) | 0.046 | 0.009 | 0.006 | 0.153 | 0.373 | > 50 | 31.9 | 0.014 | > 50 | 5.78 | 0.0198 | > 50 | > 50 | > 50 | > 50 | > 50 | 2.23 | > 50 | > 50 | > 50 | IC50 (ug/ml), neutralizing activity [1]: 1.12 µg/mL; IC50 (ug/ml), neutralizing activity [2]: 0.014 µg/mL; IC50 (ug/ml), neutralizing activity [3]: 0.0082 µg/mL; IC50 (ug/ml), neutralizing activity [4]: > 10 µg/mL; IC50, pseudovirus neutralization [25]: 27.9 µg/mL; IC50, pseudovirus neutralization [26]: 4.14 µg/mL; IC50 (ug/ml), neutralizing activity [27]: > 10 µg/mL; IC50, pseudovirus neutralization [28]: > 50 µg/mL
2 | 5329_C19 (PGT-136) (antibody) | > 50 | > 50 | > 50 | > 50 | 43.1 | > 50 | > 50 | > 50 | > 50 | > 50 | 8.11 | > 50 | > 50 | > 50 | > 50 | > 50 | > 50 | > 50 | > 50 | > 50 | IC50 (ug/ml), neutralizing activity [1]: > 10 µg/mL; IC50 (ug/ml), neutralizing activity [2]: 0.738 µg/mL; IC50, pseudovirus neutralization [25]: 44.3 µg/mL; IC50, pseudovirus neutralization [26]: 45.2 µg/mL; IC50, pseudovirus neutralization [28]: > 50 µg/mL
3 | 5343_B08 (PGT-135) (antibody) | > 50 | > 50 | > 50 | > 50 | 0.166 | > 50 | > 50 | 0.057 | 0.329 | > 50 | 0.393 | > 50 | > 50 | > 50 | > 50 | > 50 | > 50 | > 50 | > 50 | 0.137 | IC50 (ug/ml), neutralizing activity [1]: 0.104 µg/mL; IC50 (ug/ml), neutralizing activity [2]: 0.157 µg/mL; IC50, pseudovirus neutralization [25]: 0.145 µg/mL; IC50, pseudovirus neutralization [26]: 0.062 µg/mL; IC50, pseudovirus neutralization [28]: > 50 µg/mL
4 | 5345_I01 (PGT-137) (antibody) | > 50 | > 50 | > 50 | > 50 | > 50 | > 50 | > 50 | 32.9 | > 50 | > 50 | 41.7 | > 50 | > 50 | > 50 | > 50 | > 50 | > 50 | > 50 | > 50 | 34.9 | IC50, pseudovirus neutralization [25]: 0.126 µg/mL; IC50, pseudovirus neutralization [26]: 0.228 µg/mL; IC50, pseudovirus neutralization [28]: > 50 µg/mL
